These results are taken from patent publication US20180055768.

The series concerns HA-tagged wt ARRDC1.

Sequence of GFP-tagged WWP2 (chain, as listed by the source): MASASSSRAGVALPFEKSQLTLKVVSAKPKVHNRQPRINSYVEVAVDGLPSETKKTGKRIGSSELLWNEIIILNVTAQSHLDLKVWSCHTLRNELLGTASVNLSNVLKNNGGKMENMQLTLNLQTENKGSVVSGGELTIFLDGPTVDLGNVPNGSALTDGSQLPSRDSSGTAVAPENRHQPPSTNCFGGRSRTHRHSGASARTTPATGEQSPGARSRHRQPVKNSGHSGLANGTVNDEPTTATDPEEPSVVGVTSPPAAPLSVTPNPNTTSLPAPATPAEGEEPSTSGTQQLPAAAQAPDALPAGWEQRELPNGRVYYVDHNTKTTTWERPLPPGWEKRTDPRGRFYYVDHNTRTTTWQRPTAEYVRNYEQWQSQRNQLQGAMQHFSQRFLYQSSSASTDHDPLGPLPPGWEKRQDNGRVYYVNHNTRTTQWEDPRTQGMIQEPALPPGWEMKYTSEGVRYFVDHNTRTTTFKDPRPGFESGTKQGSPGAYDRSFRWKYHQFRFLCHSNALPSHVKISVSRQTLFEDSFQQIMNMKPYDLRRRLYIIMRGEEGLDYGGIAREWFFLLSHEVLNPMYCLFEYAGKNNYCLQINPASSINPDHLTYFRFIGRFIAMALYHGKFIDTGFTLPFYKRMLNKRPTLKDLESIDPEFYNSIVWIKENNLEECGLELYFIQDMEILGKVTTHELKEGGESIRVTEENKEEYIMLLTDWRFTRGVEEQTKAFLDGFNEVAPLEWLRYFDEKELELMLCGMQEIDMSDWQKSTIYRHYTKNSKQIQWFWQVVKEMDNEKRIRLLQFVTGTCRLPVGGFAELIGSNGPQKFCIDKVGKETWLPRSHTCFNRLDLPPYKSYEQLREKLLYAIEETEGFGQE

For GFP-tagged WWP2, the “ubiquitination of ARRDC1 (immunoblot of WCEs and ARMMs)” value was “ubiquitination of ARRDC1 was enhanced by WWP2”.
